Laboratory results from patent US20210403546A1 (LUDWIG INSTITUTE FOR CANCER RESEARCH, published 2021).
Numbering of substitutions follows the chain as printed. Names and notes keep the numbering of the source.

B1: 13A1_AH Fab (LCR13A1_VK_GLv3_02 + LCR13A1_VH_GLv1_06) (Fab, V domains shown)
VH: QVQLVQSGSVLAKPGASVKVSCKASGYTFTNYWTHWVRQAPGQGLEWIGTIYPGNSDTNYNQKFKDRAKLTAVTSTSTVYMELSSLRSEDTALYYCTREDSRSLNFNGWDYFDHWGQGTLVTVSS
VL: DIVMTQSPDSLAVSLGERATINCKSSESVDNYGISFLNWYQQKPGKAPKLLIYAASNQGSGVPDRFSGSGSGTDFTLTISSLQAEDAAVYFCQQSKEVPRTFGGGTKLEIK
notes: Human stabilized IgG1 Fab, 6xHis on CH1
B2: 13A1_AG Fab (LCR13A1_VK_GLv3_02 + LCR13A1_VH_GLv1_05) (Fab, V domains shown)
VH: B1 VH with N105Y, F106Y
VL: B1 VL
notes: as for B1
B3: 13A1_AF Fab (LCR13A1_VK_GLv3_02 + LCR13A1_VH_GLv1_04) (Fab, V domains shown)
VH: B1 VH with T34M, L93V, H114Y
VL: B1 VL
notes: Human stabilized IgG1 Fab: VH-CH1(IgG1)-6xHis and VK-CK, CK/CH1 with the stabilizing mutations of Chen et al 2016
B4: 13A1_DH Fab (LCR13A1_VK_GLv1_08 + LCR13A1_VH_GLv1_06) (Fab, V domains shown)
VH: B1 VH
VL: DIVMTQSPDSLAVSLGQRASISCRASESVDNYGISFLNWFQQKPGQPPKLLIYAASNQGSGVPSRFSGSGSGTDFTLNIHPLEAEDAATYYCQQSKEVPRTFGGGTKVEIK
notes: as for B1
B5: 13A1_CG Fab (LCR13A1_VK_GLv1_07 + LCR13A1_VH_GLv1_05) (Fab, V domains shown)
VH: B1 VH with N105Y, F106Y
VL: B4 VL with Q17E, S20T, F36L
notes: as for B1
B6: 13A1_EF Fab (LCR13A1_VK_GLv1_09 + LCR13A1_VH_GLv1_04) (Fab, V domains shown)
VH: B1 VH with T34M, L93V, H114Y
VL: B4 VL with F36L, F40Y
notes: as for B1
B7: 13A1_EG Fab (LCR13A1_VK_GLv1_09 + LCR13A1_VH_GLv1_05) (Fab, V domains shown)
VH: B1 VH with N105Y, F106Y
VL: B4 VL with F36L, F40Y
notes: as for B1
B8: 13A1_CH Fab (LCR13A1_VK_GLv1_07 + LCR13A1_VH_GLv1_06) (Fab, V domains shown)
VH: B1 VH
VL: B4 VL with Q17E, S20T, F36L
notes: as for B1
B9: 13A1_DF Fab (LCR13A1_VK_GLv1_08 + LCR13A1_VH_GLv1_04) (Fab, V domains shown)
VH: B1 VH with T34M, L93V, H114Y
VL: B4 VL
notes: as for B1
B10: 13A1_BF Fab (LCR13A1_VK_GLv1_06 + LCR13A1_VH_GLv1_04) (Fab, V domains shown)
VH: B1 VH with T34M, L93V, H114Y
VL: B4 VL with Q17E, S20T, F40Y
notes: as for B1
B11: 13A1_EH Fab (LCR13A1_VK_GLv1_09 + LCR13A1_VH_GLv1_06) (Fab, V domains shown)
VH: B1 VH
VL: B4 VL with F36L, F40Y
notes: as for B1
B12: 13A1_DG Fab (LCR13A1_VK_GLv1_08 + LCR13A1_VH_GLv1_05) (Fab, V domains shown)
VH: B1 VH with N105Y, F106Y
VL: B4 VL
notes: as for B1
B13: 13A1_BH Fab (LCR13A1_VK_GLv1_06 + LCR13A1_VH_GLv1_06) (Fab, V domains shown)
VH: B1 VH
VL: B4 VL with Q17E, S20T, F40Y
notes: as for B1
B14: 13A1_CF Fab (LCR13A1_VK_GLv1_07 + LCR13A1_VH_GLv1_04) (Fab, V domains shown)
VH: B1 VH with T34M, L93V, H114Y
VL: B4 VL with Q17E, S20T, F36L
notes: as for B1
B15: 13A1_BG Fab (LCR13A1_VK_GLv1_06 + LCR13A1_VH_GLv1_05) (Fab, V domains shown)
VH: B1 VH with N105Y, F106Y
VL: B4 VL with Q17E, S20T, F40Y
notes: as for B1
B16: LCR13A1_scFv (soluble scFv of murine 13A1) (scFv)
scFv: DIVLTQSPASLAVSLGQRATISCRASESVDNYGISFLNWFQQKPGQPPKLLIYAASNQGSGVPARFSGSGSGTDFSLNIHPMEEDDTGMYFCQQSKEVPRTFGGGTKLEIKRTVAARQEGGSGEGGSGESNAAAEVQLQQSGTVLARPGASVKMSCKTSGYTFTNYWMHWVRQRPGQGLEWIGTIYPGNSDTNYNQKFKDKAKLTAVTSATTAYMELSSLTNEDSAVYFCTREDSRSLYYNGWDYFDYWGQGTLVTVSSASTKAS
notes: Orientation VL-linker-VH; expressed in E. coli from pCHV101; also called LCR13A1 soluble scFv
B17: LCR13A1_VH_GLv3_LCR13A1_VK_GLv3 (LCR13A1-2A) IgG4(S228P) (antibody, V domains shown)
VH: QVQLVQSGSELKKPGASVKVSCKTSGYTFTNYWMHWVRQAPGQGLEWIGTIYPGNSDTNYNQKFQGRVTITRDTSASTAYMELSSLRSEDTAVYFCTREDSRSLYYNGWDYFDYWGQGTTVTVSS
VL: B1 VL with Y40F, A87V
notes: Human IgG4 (IGHG4*01 with S228P) and human CK*01; also called Ab 2A
B18: LCR13A1_VH_GLv3_LCR13A1_VK_GLv1_03 (LCR13A1-2C) IgG4(S228P) (antibody, V domains shown)
VH: B17 VH
VL: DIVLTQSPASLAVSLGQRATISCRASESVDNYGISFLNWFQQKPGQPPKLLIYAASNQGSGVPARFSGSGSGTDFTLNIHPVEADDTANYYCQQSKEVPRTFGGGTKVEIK
notes: Human IgG4 (IGHG4*01 with S228P) and human CK*01; also called Ab 2C
B19: LCR13A1_VH_GLv1_03_LCR13A1_VK_GLv3 (LCR13A1-2B) IgG4[S228P] (antibody, V domains shown)
VH: B1 VH with T34M, L93V, N105Y, F106Y, H114Y
VL: DIVMTQSPDSLAVSLGERATINCKSSESVDNYGISFLNWFQQKPGKAPKLLIYAASNQGSGVPDRFSGSGSGTDFTLTISSLQAEDVAVYFCQQSKEVPRTFGGGTKLEIKR
notes: VK + CK*01; also called Ab 2B
B20: LCR13A1_VH_GLv1_03_LCR13A1_VK_GLv1_03 (LCR13A1-2D) IgG4(S228P) (antibody, V domains shown)
VH: B1 VH with T34M, L93V, N105Y, F106Y, H114Y
VL: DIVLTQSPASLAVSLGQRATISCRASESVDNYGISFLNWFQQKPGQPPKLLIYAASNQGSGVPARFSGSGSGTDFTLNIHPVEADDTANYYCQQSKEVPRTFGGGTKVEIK
notes: Human IgG4 (IGHG4*01 with S228P) and human CK*01; also called Ab 2D
B21: LCR13A1_VH_GLv1_03_LCR13A1_VK_GLv1_05 (LCR13A1-2F) IgG4[S228P] (antibody, V domains shown)
VH: B1 VH with T34M, L93V, N105Y, F106Y, H114Y
VL: DIVMTQSPDSLAVSLGERATISCRASESVDNYGISFLNWFQQKPGQPPKLLIYAASNQGSGVPSRFSGSGSGTDFTLNIHPLEAEDAATYYCQQSKEVPRTFGGGTKVEIKR
notes: VK + CK*01; also called Ab 2F; hIgG4 13A1-2F
B22: LCR13A1_VH_GLv1_03_LCR13A1_VK_GLv1_04 (LCR13A1-2E) IgG4(S228P) (antibody, V domains shown)
VH: B1 VH with T34M, L93V, N105Y, F106Y, H114Y
VL: B4 VL with M4L, D9A, S20T, T89A
notes: Human IgG4 (IGHG4*01 with S228P) and human CK*01; also called Ab 2E

molecular target: T1, human recombinant TGF-b1 (human, UniProt P01137 279-390); assay: SPR (Biacore T200), 10 nM Fab over amine-coupled TGFb1 (492 RUs)
T1 construct: also called TGF-β1; hTGF-β1
T1 sequence (P01137 279-390 limits assumed): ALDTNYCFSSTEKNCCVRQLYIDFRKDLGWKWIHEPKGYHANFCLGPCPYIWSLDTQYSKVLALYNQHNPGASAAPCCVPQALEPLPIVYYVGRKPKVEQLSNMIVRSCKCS
Procedure: FIG. 27 provides Biacore analysis of the new mutant variant antibodies and compares the new mutants versus parent variant 13A1-2F and versus mu13A1. Selected variants have different monovalent (huIgG1 stabilized Fab format). Biacore binding kinetics, range from lower to higher than the parental mouse 13A1 (mu13A1, hybrid with mouse VK/VH and huCK/huCH1). The data presented is ka, kd and apparent KD. TGFb1 (chip): 492 Rus, Fabs: 10 nM, Flow rate: 30 ul/min, Contact time: 510s, Diss. Time: 600s. Quality: Chi(2)<=1% Rmax and U score <=5. Data is presented for mutant variant antibodies 13A1_AF, 13A1_AG, 13A1_AH, 13A1_BF, 13A1_BG, 13A1_BH, 13A1_CF, 13A1_CG, 13A1_CH, 13A1_DF, 13A1_DG, 13A1_DH, 13A1_EF, 13A1_EG and 13A1_EH.
SPR binding analysis of Fabs: Experiments were performed using the Biacore T200 equipped with the Series S sensor chip CMS (GE Healthcare, cat. #BR-1005-30). The instrument temperature was set at 25° C. for all steps in the analysis while the compartment temperature was set at 10° C. All the assays were performed using the running buffer HBS-EP+ 1×. Recombinant TGF-β1 (Biocat, cat. #TG1-H4212-50 ug-AC) was immobilized with the standard amine-coupling chemistry using a solution of the ligand at 1 ug/mL in acetate, pH 4.5. Recombinant TGF-β1 was injected for several minutes to achieve a target density of 492 RUs. For TGF-β1 kinetic analysis Fabs were diluted in running buffer to 10 nM. One buffer blank was always injected before the injection of the antibody sample. The antibodies were then injected for 8.5 minutes (510 s) at 30 uL/min with 600 seconds of dissociation time. Regeneration was performed with 60 seconds of injection at 30 uL/min of 10 mM glycine 1.5. The Biacore binding kinetics range from lower to higher than the parental mouse 13A1 (mu13A1, hybrid with mouse VK/VH and huCK/huCH1.

Binding result, binds:
B1
B2
B3
B4
B5
B6
B7
B8
B9
B10
B11
B12
B13
B14
B15

molecular target: T1, human recombinant TGF-b1; assay: ELISA, scFv culture on plate-coated TGF-b1, anti-cmyc detection

Binding result, binds:
B16

molecular target: T1, human recombinant TGF-b1; assay: competition ELISA on hTGF-β1-coated plate; competitor biotinylated murine 13A1
Procedure: Nunc Maxisorb ELISA plates were coated overnight at 8° C. with 0.5 μg/ml hTGF-β1 (Peter Sun, NIH) or hTGF-β3 (Shenandoah Biotech) at 0.5 μg/ml in 40 mM glycine buffer pH 9. Plates were washed and blocked with 10% FCS for 1 h at 37° C. In a separate low binding Greiner Bio-One ELISA plate, various concentrations of competing Abs were mixed with a constant concentration of biotinylated parental 13A1 or 1901 at 200 ng/ml in PBS+BSA (10 mg/ml) and then transferred onto the TGF-β-coated Nunc Maxisorb ELISA plate. After incubation for 2 h at 37° C. plates were washed, Avidine-HRP added and incubated for 1 h at 37° C. Plates washed again, TMB substrate was added and bound biotinylated antibody was quantitated by measuring color development in an ELISA reader at a wave length of 450 nm.
The potency of the humanized LCR13A1 IgG4 antibody variants to compete with the parental murine antibody for binding to TGFb1 was assessed by ELISA. The six IgG4 variants LCR13A1_VH_GLv3_LCR13A1_VK_GLv3 (LCR13A1-2A), LCR13A1_VH_GLv1_03_LCR13A1_VK_GLv3 (LCR13A1-2B), LCR13A1_VH_GLv3_LCR13A1_VK_GLv1_03 (LCR13A1-2C), LCR13A1_VH_GLv1_03_LCR13A1_VK_GLv1_03 (LCR13A1-2D), LCR13A1_VH_GLv1_03_LCR13A1_VK_GLv1_04 (LCR13A1-2E) and LCR13A1_VH_GLv1_03_LCR13A1_VK_GLv1_05 (LCR13A1-2F) competed with the parental murine 13A1 antibody for binding to TGFb1 in a dose-dependent manner (FIG. 17).

Binding result, binds:
B17
B18
B19
B20
B21
B22
